T1: TNF receptor 1 Fc fusion protein (R&D Systems) (human, UniProt P19438 30-211, limits assumed)
T1 construct: also called recombinant TNF receptor 1 (p55); not shown: Fc part of the bought fusion protein, captured by an anti-human Fc antibody
T1 sequence (looked up): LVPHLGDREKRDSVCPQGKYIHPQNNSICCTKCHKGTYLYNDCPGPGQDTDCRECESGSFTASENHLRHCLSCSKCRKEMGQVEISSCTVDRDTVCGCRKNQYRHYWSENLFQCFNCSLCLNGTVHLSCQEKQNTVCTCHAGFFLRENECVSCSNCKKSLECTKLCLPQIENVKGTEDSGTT

T2: Biotinylated human TNFRI (human, UniProt P19438 30-211, limits assumed, biotinylated (approx 1 biotin per molecule))
T2 sequence (looked up): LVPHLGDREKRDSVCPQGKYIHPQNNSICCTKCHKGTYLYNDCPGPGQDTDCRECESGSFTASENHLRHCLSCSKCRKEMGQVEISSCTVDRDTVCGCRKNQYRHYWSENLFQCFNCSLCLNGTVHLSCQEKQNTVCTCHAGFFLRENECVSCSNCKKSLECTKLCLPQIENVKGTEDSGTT

B1: HEL4 PEGylated with SPA-PEG (other)
VH: EVQLLESGGGLVQPGGSLRLSCAASGFRISDEDMGWVRQAPGKGLEWVSSIYGPSGSTYYADSVKGRFTISRDNSKNTLYLQMNSLRAEDTAVYYCASALEPLSEPLGFWGQGTLVTVSS
modifications: SPA-PEG on surface lysine residues (sites not given)
notes: also called PEGylated HEL4
B2: HEL4 PEGylated with NHS-PEG (other)
VH: EVQLLESGGGLVQPGGSLRLSCAASGFRISDEDMGWVRQAPGKGLEWVSSIYGPSGSTYYADSVKGRFTISRDNSKNTLYLQMNSLRAEDTAVYYCASALEPLSEPLGFWGQGTLVTVSS
modifications: NHS-PEG on surface lysine residues (sites not given)
notes: also called PEGylated HEL4; HEL4 40K PEG-NHS
B3: TAR2-10-27 Asp62cys blocked (other)
VH: ASTEVQLLESGGGLVQPGGSLRLSCAASGFTFEWYWMGWVRQAPGKGLEWVSAISGSGGSTYYACSVKGRFTISRDNSKNTLYLQMNSLRAEDAAVYYCAKVKLGGGPNFGYRGQGTLVTVSS
modifications: Cys62 blocked with N-ethylmaleimide
notes: For numbering and entry offset see m28
B4: TAR2-10-27 Asp62cys 30K MAL PEG (protein)
VH: ASTEVQLLESGGGLVQPGGSLRLSCAASGFTFEWYWMGWVRQAPGKGLEWVSAISGSGGSTYYACSVKGRFTISRDNSKNTLYLQMNSLRAEDAAVYYCAKVKLGGGPNFGYRGQGTLVTVSS
modifications: 30K MAL-PEG on Cys62
B5: TAR2-10-27 Glu89cys 30K MAL PEG (other)
VH: ASTEVQLLESGGGLVQPGGSLRLSCAASGFTFEWYWMGWVRQAPGKGLEWVSAISGSGGSTYYADSVKGRFTISRDNSKNTLYLQMNSLRACDAAVYYCAKVKLGGGPNFGYRGQGTLVTVSS
modifications: 30K MAL-PEG on Cys89
notes: as for B3
B6: TAR2-10-27 Leu115cys blocked (other)
VH: ASTEVQLLESGGGLVQPGGSLRLSCAASGFTFEWYWMGWVRQAPGKGLEWVSAISGSGGSTYYADSVKGRFTISRDNSKNTLYLQMNSLRAEDAAVYYCAKVKLGGGPNFGYRGQGTCVTVSS
modifications: Cys115 blocked with N-ethylmaleimide
notes: as for B3
B7: TAR2-10-27 Ser120cys blocked (other)
VH: ASTEVQLLESGGGLVQPGGSLRLSCAASGFTFEWYWMGWVRQAPGKGLEWVSAISGSGGSTYYADSVKGRFTISRDNSKNTLYLQMNSLRAEDAAVYYCAKVKLGGGPNFGYRGQGTLVTVSC
modifications: C-terminal Cys (Ser120cys) blocked with N-ethylmaleimide
notes: TAR2-10-27 cys; the entry already carries Ser120cys
B8: TAR210-27 5K MAL PEG (other)
VH: ASTEVQLLESGGGLVQPGGSLRLSCAASGFTFEWYWMGWVRQAPGKGLEWVSAISGSGGSTYYADSVKGRFTISRDNSKNTLYLQMNSLRAEDAAVYYCAKVKLGGGPNFGYRGQGTLVTVSC
modifications: 5K MAL-PEG on the C-terminal Cys (Ser120cys)
notes: For the limits of the entry see m36
B9: TAR210-27 2 × 10K MAL PEG (other)
VH: ASTEVQLLESGGGLVQPGGSLRLSCAASGFTFEWYWMGWVRQAPGKGLEWVSAISGSGGSTYYADSVKGRFTISRDNSKNTLYLQMNSLRAEDAAVYYCAKVKLGGGPNFGYRGQGTLVTVSC
modifications: 2 × 10K MAL-PEG on the C-terminal Cys (Ser120cys)
notes: as for B8
B10: TAR2-10-27 Thr117cys blocked (other)
VH: ASTEVQLLESGGGLVQPGGSLRLSCAASGFTFEWYWMGWVRQAPGKGLEWVSAISGSGGSTYYADSVKGRFTISRDNSKNTLYLQMNSLRAEDAAVYYCAKVKLGGGPNFGYRGQGTLVCVSS
modifications: Cys117 blocked with N-ethylmaleimide
notes: as for B3
B11: TAR2-10-27 Gln112cys 30K MAL PEG (other)
VH: ASTEVQLLESGGGLVQPGGSLRLSCAASGFTFEWYWMGWVRQAPGKGLEWVSAISGSGGSTYYADSVKGRFTISRDNSKNTLYLQMNSLRAEDAAVYYCAKVKLGGGPNFGYRGCGTLVTVSS
modifications: 30K MAL-PEG on Cys112
notes: as for B3
B12: TAR2-10-27 Ser120cys 30K MAL PEG (other)
VH: ASTEVQLLESGGGLVQPGGSLRLSCAASGFTFEWYWMGWVRQAPGKGLEWVSAISGSGGSTYYADSVKGRFTISRDNSKNTLYLQMNSLRAEDAAVYYCAKVKLGGGPNFGYRGQGTLVTVSC
modifications: 30K MAL-PEG on the C-terminal Cys (Ser120cys)
notes: TAR2-10-27 cys; For the limits of the entry see m36; also called TAR210-27 30K MAL PEG
B13: TAR2-10-27 Glu89cys blocked (other)
VH: ASTEVQLLESGGGLVQPGGSLRLSCAASGFTFEWYWMGWVRQAPGKGLEWVSAISGSGGSTYYADSVKGRFTISRDNSKNTLYLQMNSLRACDAAVYYCAKVKLGGGPNFGYRGQGTLVTVSS
modifications: Cys89 blocked with N-ethylmaleimide
notes: as for B3
B14: TAR2-10-27 Leu115cys 30K MAL PEG (other)
VH: ASTEVQLLESGGGLVQPGGSLRLSCAASGFTFEWYWMGWVRQAPGKGLEWVSAISGSGGSTYYADSVKGRFTISRDNSKNTLYLQMNSLRAEDAAVYYCAKVKLGGGPNFGYRGQGTCVTVSS
modifications: 30K MAL-PEG on Cys115
notes: as for B3
B15: TAR2-10-27 Gln13cys 30K MAL PEG (other)
VH: ASTEVQLLESGGGLVCPGGSLRLSCAASGFTFEWYWMGWVRQAPGKGLEWVSAISGSGGSTYYADSVKGRFTISRDNSKNTLYLQMNSLRAEDAAVYYCAKVKLGGGPNFGYRGQGTLVTVSS
modifications: 30K MAL-PEG on Cys13
notes: as for B3
B16: TAR2-10-27 Gln112cys blocked (other)
VH: ASTEVQLLESGGGLVQPGGSLRLSCAASGFTFEWYWMGWVRQAPGKGLEWVSAISGSGGSTYYADSVKGRFTISRDNSKNTLYLQMNSLRAEDAAVYYCAKVKLGGGPNFGYRGCGTLVTVSS
modifications: Cys112 blocked with N-ethylmaleimide
notes: as for B3
B17: TAR2-10-27 Thr117cys 30K MAL PEG (other)
VH: ASTEVQLLESGGGLVQPGGSLRLSCAASGFTFEWYWMGWVRQAPGKGLEWVSAISGSGGSTYYADSVKGRFTISRDNSKNTLYLQMNSLRAEDAAVYYCAKVKLGGGPNFGYRGQGTLVCVSS
modifications: 30K MAL-PEG on Cys117
notes: as for B3
B18: TAR2-10-27 Gln13cys blocked (other)
VH: ASTEVQLLESGGGLVCPGGSLRLSCAASGFTFEWYWMGWVRQAPGKGLEWVSAISGSGGSTYYADSVKGRFTISRDNSKNTLYLQMNSLRAEDAAVYYCAKVKLGGGPNFGYRGQGTLVTVSS
modifications: Cys13 blocked with N-ethylmaleimide
notes: as for B3
B19: TAR2-10-27 Pro41cys 30K MAL PEG (other)
VH: ASTEVQLLESGGGLVQPGGSLRLSCAASGFTFEWYWMGWVRQACGKGLEWVSAISGSGGSTYYADSVKGRFTISRDNSKNTLYLQMNSLRAEDAAVYYCAKVKLGGGPNFGYRGQGTLVTVSS
modifications: 30K MAL-PEG on Cys41
notes: as for B3
B20: TAR2-10-27 Pro41cys blocked (other)
VH: ASTEVQLLESGGGLVQPGGSLRLSCAASGFTFEWYWMGWVRQACGKGLEWVSAISGSGGSTYYADSVKGRFTISRDNSKNTLYLQMNSLRAEDAAVYYCAKVKLGGGPNFGYRGQGTLVTVSS
modifications: Cys41 blocked with N-ethylmaleimide
notes: as for B3
B21: TAR210-27 20K MAL PEG (other)
VH: ASTEVQLLESGGGLVQPGGSLRLSCAASGFTFEWYWMGWVRQAPGKGLEWVSAISGSGGSTYYADSVKGRFTISRDNSKNTLYLQMNSLRAEDAAVYYCAKVKLGGGPNFGYRGQGTLVTVSC
modifications: 20K MAL-PEG on the C-terminal Cys (Ser120cys)
notes: as for B8

Assays:
hen egg white lysozyme = hen egg white lysozyme (hen, UniProt P00698 19-147); experiment: batch binding to lysozyme-Sepharose affinity resin, SDS-PAGE read-out
Sequence of hen egg white lysozyme (P00698 19-147 limits assumed): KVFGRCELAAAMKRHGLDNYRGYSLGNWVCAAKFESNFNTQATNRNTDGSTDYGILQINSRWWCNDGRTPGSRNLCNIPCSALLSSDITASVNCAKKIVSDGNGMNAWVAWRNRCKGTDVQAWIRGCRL
Method: A HEL4 affinity based resin (based on the antigen, hen egg white lysozyme) was produced to test the functionality of the PEGylated dAb. Lysozyme was coupled to NETS activated Sepharose 4B resin (Amersham Pharmacia) following the manufacturer's instructions. The PEGylated samples (5 μg) were then mixed with the affinity resin (100 μl) and allowed to bind in PBS at room temperature for 30 mins. The resin was then extensively washed with PBS (3×1 ml) to remove unbound protein. The affinity resin was then run on a SDS-PAGE to determine if the PEGylated HEL4 had bound to the matrix (see Section 8.3).

[1] = molecular target: T1, TNF receptor 1 Fc fusion protein (R&D …); experiment: DOM1 receptor binding assay (RBA): dAb titrated against TNF binding to TNF receptor 1
Method: Assays for the measurement of receptor binding by a ligand, e.g., a cytokine, are known in the art. […] Briefly, Maxisorp plates are incubated overnight with […] anti-human Fc mouse monoclonal antibody (Zymed, San Francisco, USA). […] The plate is washed to remove any unbound protein before the detection step. […] The reaction is stopped by the addition of HCl and the absorbance is read at 450 nm.

[2] = molecular target: p55 TNF-α receptor on MRC-5 cells (human) (UniProt P19438); experiment: cell-based or functional assay
Sequence of p55 TNF-α receptor on MRC-5 cells (human) (P19438 30-455): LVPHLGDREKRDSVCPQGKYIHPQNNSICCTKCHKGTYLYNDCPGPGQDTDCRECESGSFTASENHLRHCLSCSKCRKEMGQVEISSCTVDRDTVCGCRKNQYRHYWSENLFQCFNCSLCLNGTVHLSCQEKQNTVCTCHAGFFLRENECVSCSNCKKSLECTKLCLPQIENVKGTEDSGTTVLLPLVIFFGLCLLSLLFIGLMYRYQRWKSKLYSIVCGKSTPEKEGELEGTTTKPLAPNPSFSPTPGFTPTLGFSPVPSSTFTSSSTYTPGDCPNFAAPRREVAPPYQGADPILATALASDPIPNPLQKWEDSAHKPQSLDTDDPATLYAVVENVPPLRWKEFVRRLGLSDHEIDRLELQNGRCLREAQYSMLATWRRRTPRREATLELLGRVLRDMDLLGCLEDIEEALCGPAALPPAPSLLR

Biotinylated human TNFRI [3] = molecular target: T2, Biotinylated human TNFRI; experiment: SPR (Biacore), biotinylated human TNFRI on streptavidin chip, dAb injected
Source text: (§1) The effect of PEGylation on the binding affinity of TAR2-10-27 for its antigen was investigated using Biacore. All the PEGylated formats were generated using TAR2-10-27cys (see Example 2). The following methodology was used to determine the on and off rates of each PEGylated dAb format for the antigen. Biotinylated human TNFRI (approx 1 biotin per molecule) was coated onto a single flow cell of a Biacore streptavidin sensor chip at a density of approximately 400 RU. A concentration series of each dAb or PEGylated dAb (2.6 μM, 770 nM, 260 nM, 77 nM and 2.6 nM) was sequentially injected (45 μl injection at a flow rate of 30 μl/min) over both the TNFRI coated flow cell and an uncoated flow cell (streptavidin), (a subtractive curve was generated by subtracting the uncoated flow cell curve from the TNFRI flow cell curve). The off-rate was analysed for five minutes after the injection of each sample after which the surface was regenerated by injection of 10 mM glycine pH 3.
(§2) Data generated from the Biacore was fitted using the curve fitting software (Biaevaluation 3.2) and the association constant (kₐ) and dissociation constant (kd) determined (Table 8).

Biotinylated human TNFRI [4] = molecular target: T2, Biotinylated human TNFRI; experiment: SPR (Biacore), biotinylated human TNFRI on streptavidin chip, dAb injected; KD from mean kd/ka
Source text: as §1, §2

| Binder | binding result (hen egg white lysozyme) | IC50 [1] | MRC5 cell assay ND 50 [2] | koff (Biotinylated human TNFRI [3]) | kon (Biotinylated human TNFRI [3]) | Kd (Biotinylated human TNFRI [4]) |
| --- | --- | --- | --- | --- | --- | --- |
| B1 | binds |  |  |  |  |  |
| B2 | binds |  |  |  |  |  |
| B3 |  | 15 nM | 430 nM |  |  |  |
| B4 |  |  | 1000 nM |  |  |  |
| B5 |  | 20 nM | 100 nM |  |  |  |
| B6 |  | 3 nM | 30 nM |  |  |  |
| B7 |  | 3 nM | 30 nM | 0.00596 s⁻¹ | 577000 M⁻¹ s⁻¹ | 10.3 nM |
| B8 |  |  |  | 0.011 s⁻¹ | 90000 M⁻¹ s⁻¹ | 122 nM |
| B9 |  |  |  | 0.00954 s⁻¹ | 120000 M⁻¹ s⁻¹ | 79.5 nM |
| B10 |  | 3 nM | 30 nM |  |  |  |
| B11 |  | 15 nM | 650 nM |  |  |  |
| B12 |  | 10 nM | 600 nM | 0.00769 s⁻¹ | 83400 M⁻¹ s⁻¹ | 92.2 nM |
| B13 |  | 3 nM | 70 nM |  |  |  |
| B14 |  | 10 nM | 300 nM |  |  |  |
| B15 |  | 8 nM | 200 nM |  |  |  |
| B16 |  | 2 nM | 15 nM |  |  |  |
| B17 |  | 8 nM | 700 nM |  |  |  |
| B18 |  | 2 nM | 30 nM |  |  |  |
| B19 |  | 8 nM | 200 nM |  |  |  |
| B20 |  | 1 nM | 45 nM |  |  |  |
| B21 |  |  |  | 0.012 s⁻¹ | 79900 M⁻¹ s⁻¹ | 150 nM |

— patent publication US20060286066A1 (published 2006)
